Measured values published in patent US9315544B2, “Method of treating eosinophilia by administering an immunomodulating peptide” (National Tsing Hua University, priority 2012, dated 2016).

Tests used:
Type in all cases: cell-based
human CCL11 = assay: CCL11 protein release from Beas-2B cells by ELISA; conditions: 37° C., 24 h
Procedure: FIG. 2 illustrates CCL11 expression in CMP and ECP co-treated Beas-2B cells. Beas-2B cells were starved with serum free medium for 24 h, followed by stimulation with ECP (column 2). Cells were stimulated with PBS as negative control (column 1) and ECP in the absence of CMP (column 2) or presence of 1 μM (column 3), 2.5 μM (column 4), 5 μM (column 5), 10 μM (column 6) CMP at 37° C. for 24 h. CCL11 protein level was determined by ELISA kit employing CCL11 antibody. The data represented mean±SD (standard deviation) of at least three independent experiments. ***, p<0.001; **, p<0.01
FIG. 3 illustrates CCL11 expression in CMP and IL-4 co-treated Beas-2B cells. Beas-2B cells were starved with serum free medium for 24 h, followed by stimulation with PBS (column 1) or 10 ng/mL IL-4 (column 2-7). Cells were stimulated with 10 ng/mL IL-4 in the absence […] or presence of 1 μM (column 3), 2.5 μM (column 4), 5 μM (column 5) and 10 μM (column 6) CMP at 37° C. for 24 h. CCL11 protein level was determined by ELISA kit employing CCL11 antibody. The data represented mean±SD (standard deviation) of at least three independent experiments. ***, p<0.001 (Stimulation with IL-4 compared with PBS treated Beas-2B cells). *, p<0.05 (Stimulation with indicated concentrations of CMP compared with IL-4 treated Beas-2B cells).
CCL11 ELISA kit (R&D) is an in vitro enzyme-linked immunosorbent assay for quantitative determination of human CCL11 concentration in cell culture supernatants. This assay employed an antibody specific for human CCL11 coated on a 96-well plate. The wells were incubated with 50 μL standard or sample for 2.5 hours at room temperature. After washing with 1× wash solution five times, 200 μL of CCL11 conjugate were added into each wells for 1 h. After washing, 100 μL TMB One-Step Substrate Reagent were added into each wells at room temperature for 30 minutes. 50 μL of Stop Solution were added into each wells and read at 450 nm by spectrophotometer immediately. Limit of detection in the assay was 5 pg/mL.
To investigate whether CMP influenced ECP-mediated CCL11 expression, Beas-2B cells were separately stimulated with 5 μM ECP in the absence of CMP and in the presence of 1 μM, 2.5 μM, 5 μM and 10 μM CMP at 37° C. for 24 h.
To further investigate whether CMP influenced CCL11 production from other stimulation in Beas-2B cells, serum-deprived Beas-2B cells were stimulated with 10 ng/mL IL-4, a dominant cytokine regulating CCL11, alone or in the presence of CMP at concentrations 1, 2.5, 5 and 10 μM at 37° C. for 24 h.

CCL11 = assay: Cytokine mRNA expression analysis by quantitative real-time PCR (CCL11); conditions: 5 μM ECP, Beas-2B cells, relative to mock-treated
Procedure: (§1) FIG. 1A-1B illustrates immunomodulatory effect of CMP on transcription of cytokine. Beas-2B cells were starved with serum free medium for 24 h, followed by stimulation with refold 5 μM ECP or 5 μM CMP or co-treatment with 5 μM ECP and 5 μM CMP at 37° C. for (A) 6 h and (B) 12 h, respectively. The mRNA quantities of CCL11, CCL24 and CCL26 were determined by real-time PCR. Beas-2B cells without protein treatment were used as control. […] The data represented at least three independent experiments and the error bar was shown as standard deviation (SD).
For inflammatory cytokine expression analysis, Beas-2B cells were stimulated with three different conditions: 1) 5 μM ECP, 2) 5 μM CMP and 3) co-incubated with 5 μM ECP and 5 μM CMP at 37° C. for 6 and 12 h. After incubation, total RNAs were extracted with RNA TRIzol reagent (Invitrogen, Inc) and reverse transcribed with MoMLV-reverse transcriptase (Promega, Madison, Wis.). SYBR Green-based quantitative real-time PCR will be used to quantify the gene of interest, relative expression ratios of genes of interest were normalized to glyceraldehyde-3-phosphate dehydrogenase (GAPDH) transcripts. Changes in cytokine expression were measured by quantitative real-time PCR (qRT-PCR) employing the StepOne™ amplification and detection system (Life Technologies Corporation). Data were analyzed by application of the StepOne™ quantification program software (version 2.22, Life Technologies Corporation) and expressed as means±S.D. Significance analysis was carried out by a two-sample unequal variance t-test with two-tailed distribution (post test). Significance was set as P<0.05.
ECP, the best known marker protein of asthma, is involved in triggering cytokine expression in bronchial epithelial cells. Real-time PCR analysis was carried out to quantify expression levels of indicated cytokines upon treatment with recombinant ECP in the presence and absence of CMP Bronchial epithelial Beas-2B cells were separately cultured in serum-free medium in the presence of 5 μM ECP, 5 μM CMP and both 5 μM ECP and 5 μM CMP for 6 and 12 h to monitor cytokine and chemokine gene modulation using real-time quantitative PCR. Untreated Beas-2B cells incubated at the same condition for 6 h and 12 h were used as negative controls. Here variation of gene expression levels of chemokines including CCL11, CCL24 and CCL26 was analyzed.

CCL26 = assay: Cytokine mRNA expression analysis by quantitative real-time PCR (CCL26); conditions: 5 μM ECP, Beas-2B cells, 6 h, relative to mock-treated
Procedure: as §1
For inflammatory cytokine expression analysis, Beas-2B cells were stimulated with three different conditions: 1) 5 μM ECP, 2) 5 μM CMP and 3) co-incubated with 5 μM ECP and 5 μM CMP at 37° C. for 6 and 12 h. […] SYBR Green-based quantitative real-time PCR will be used to quantify the gene of interest, relative expression ratios of genes of interest were normalized to glyceraldehyde-3-phosphate dehydrogenase (GAPDH) transcripts. Changes in cytokine expression were measured by quantitative real-time PCR (qRT-PCR) employing the StepOne™ amplification and detection system (Life Technologies Corporation). […]
ECP, the best known marker protein of asthma, is involved in triggering cytokine expression in bronchial epithelial cells. […] Here variation of gene expression levels of chemokines including CCL11, CCL24 and CCL26 was analyzed.

Molecule	CCL11 release (human CCL11; 10 ng/mL IL-4 alone, serum-deprived Beas-2B cells)	CCL11 release (human CCL11; 5 μM ECP alone, Beas-2B cells)	CCL11 gene expression level increase (CCL11; 6 h)	CCL11 gene expression level increase (CCL11; 12 h)	CCL26 gene expression level increase (CCL26)
IL-4: a dominant cytokine regulating CCL11, used as stimulus (protein, UniProt P05112 25-153, looked up) Interleukin-4: HKCDITLQEIIKTLNSLTEQKTLCTELTVTDIFAASKNTTEKETFCRAATVLRQFYSHHEKDTRCLGATAQQFHRHKQLIRFLKRLDRNLWGLAGLNSCPVKEANQSTLENFLERLKTIMREKYSKCSS	73.2 pg/mL				
ECP: eosinophil cationic protein, recombinant; marker protein of asthma used as stimulus (protein, UniProt P12724 28-160, looked up) Eosinophil cationic protein: RPPQFTRAQWFAIQHISLNPPRCTIAMRAINNYRWRCKNQNTFLRTTFANVVNVCGNQSIRCPHNRTLNNCHRSRFRVPLLHCDLINPGAQNISNCTYADRPGRRFYVVACDNRDPRDSPRYPVVPVHLDTTI		17.8 pg/mL	9 fold	2.8 fold	2 fold
